This passage reports stoichiometry N results from paper PMC11586414.

For this test, the target named is AMPylated HEPN^Lpg (Legionella pneumophila Philadelphia 1) (UniProt Q5ZRG2). Put plainly: crystal structure.

In turn, “AMPylated HEPN^Lpg (from UniProt Q5ZRG2 1-139) (natural protein)” gave a stoichiometry N of 4.

As usually defined, the stoichiometry N is a count of units in the complex or per binding partner.
